Experimental data published in patent publication US20150166627A1 (Sanofi, published 2015).
Where two headings read alike, the source gives them in different places. Non-standard residues stand in square brackets, D forms with d. No end group written: not given here. Met(O2) = CS(=O)(=O)CC[C@H](N)C(=O)O; d(αMeK) = C[C@@](N)(CCCCN)C(=O)O; Met(O) = CS(=O)CC[C@H](N)C(=O)O; αMeOrn = C[C@](N)(CCCN)C(=O)O; αMeK = C[C@](N)(CCCCN)C(=O)O; Nle = CCCC[C@H](N)C(=O)O; Aib = CC(C)(N)C(=O)O

T1: human GIP receptor (human, UniProt P48546 22-466)
T1 sequence (looked up): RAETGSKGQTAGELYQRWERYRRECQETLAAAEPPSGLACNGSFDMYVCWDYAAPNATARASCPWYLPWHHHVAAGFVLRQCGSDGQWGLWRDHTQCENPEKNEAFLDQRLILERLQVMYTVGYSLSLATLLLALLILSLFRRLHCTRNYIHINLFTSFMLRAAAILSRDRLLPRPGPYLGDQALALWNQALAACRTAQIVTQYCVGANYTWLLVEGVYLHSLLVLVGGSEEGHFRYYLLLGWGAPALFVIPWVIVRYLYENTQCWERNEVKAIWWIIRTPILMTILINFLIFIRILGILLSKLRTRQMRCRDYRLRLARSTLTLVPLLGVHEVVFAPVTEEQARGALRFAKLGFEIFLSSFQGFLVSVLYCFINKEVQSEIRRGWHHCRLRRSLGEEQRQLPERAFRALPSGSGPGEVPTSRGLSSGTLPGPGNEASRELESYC


Columns and labels:
Assay in all cases: cell-based or functional assay
human GIP receptor [1] = molecular target: T1, human GIP receptor
human GLP-1 receptor [2] = molecular target: T2, human GLP-1 receptor (human, UniProt P43220 24-463)
Target sequence in this assay (P43220 24-463): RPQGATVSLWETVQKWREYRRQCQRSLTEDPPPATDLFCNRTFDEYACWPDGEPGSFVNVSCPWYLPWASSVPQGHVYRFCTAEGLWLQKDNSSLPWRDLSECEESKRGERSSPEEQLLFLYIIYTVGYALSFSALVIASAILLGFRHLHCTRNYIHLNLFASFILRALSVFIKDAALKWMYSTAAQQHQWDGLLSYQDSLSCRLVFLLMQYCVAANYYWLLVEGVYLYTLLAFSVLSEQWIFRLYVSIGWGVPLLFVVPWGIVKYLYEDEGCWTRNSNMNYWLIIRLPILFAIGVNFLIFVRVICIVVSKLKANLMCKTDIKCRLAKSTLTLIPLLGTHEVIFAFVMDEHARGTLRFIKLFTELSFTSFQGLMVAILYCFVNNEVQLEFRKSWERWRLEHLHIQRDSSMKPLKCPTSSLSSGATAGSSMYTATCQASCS

human GIP receptor [3] = molecular target: T1, human GIP receptor; remark: listed apart in the source
human glucagon receptor = human glucagon receptor (human, UniProt P47871 26-477)
Sequence of human glucagon receptor (P47871 26-477): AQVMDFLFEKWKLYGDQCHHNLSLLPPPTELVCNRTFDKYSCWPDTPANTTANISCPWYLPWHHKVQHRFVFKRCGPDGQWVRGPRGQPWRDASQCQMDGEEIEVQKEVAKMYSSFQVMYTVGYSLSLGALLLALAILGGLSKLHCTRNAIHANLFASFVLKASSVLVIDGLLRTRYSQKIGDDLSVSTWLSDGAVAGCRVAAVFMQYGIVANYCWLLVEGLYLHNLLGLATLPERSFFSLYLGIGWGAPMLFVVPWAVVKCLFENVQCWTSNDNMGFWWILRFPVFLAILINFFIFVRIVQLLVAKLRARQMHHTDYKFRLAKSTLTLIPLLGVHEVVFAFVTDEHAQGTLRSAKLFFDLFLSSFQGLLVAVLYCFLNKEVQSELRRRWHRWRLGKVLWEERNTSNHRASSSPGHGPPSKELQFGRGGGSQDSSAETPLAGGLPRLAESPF

human GLP-1 receptor [4] = molecular target: T2, human GLP-1 receptor; remark: listed apart in the source

| Binder | EC50 hGIP R [pM], cAMP formation (human GIP receptor [1]) | EC50 hGLP-1 R [pM], cAMP formation (human GLP-1 receptor [2]) | EC50 hGIP R [pM], cAMP formation (human GIP receptor [3]) | EC50 hGLUC R [pM], cAMP formation (human glucagon receptor) | EC50 hGLP-1 R [pM], cAMP formation (human GLP-1 receptor [4]) |
| --- | --- | --- | --- | --- | --- |
| YAEGTFTSDVSIYLEGQAAKEFIAWLVKGR (ends and bridges not checked) [Tyr(1)Ile(12)-GLP1] | 3660 pM | 5 pM |  |  |  |
| Y[Aib]EGTFTSDLSIQLEEEAV[Aib]LFIEWLKAGGPSSGAPPPS-NH2 [SEQ ID NO: 16] |  |  | 1.5 pM | > 1e+06 pM | 1 pM |
| Y[Aib]EGTFTSDLSIQMEKEAVRLFIEWLKAGGPSSGAPPPS-NH2 [SEQ ID NO: 9] |  |  | 3.1 pM | > 1e+06 pM | 1.1 pM |
| Y[Aib]EGTFTSDLSIQLEEEAV[d(αMeK)]LFIEWLKAGGPSSGAPPPS-NH2 [SEQ ID NO: 18] |  |  | 36.1 pM | > 1e+06 pM | 2 pM |
| Y[Aib]EGTFTSDLSIQLEEEAVRLFIEWLKAGGPSSGAPPPS-NH2 [SEQ ID NO: 15] |  |  | 7.3 pM | > 1e+06 pM | 1.4 pM |
| Y[Aib]EGTFTSDLSIQLEKEAVRLFIEWLKAGGPSSGAPPPS-NH2 [SEQ ID NO: 10] |  |  | 6.8 pM | > 1e+06 pM |  |
| Y[Aib]EGTFTSDLSIQLEEEAV[αMeOrn]LFIEWLKAGGPSSGAPPPS-NH2 [SEQ ID NO: 19] |  |  | 2.2 pM | > 1e+06 pM |  |
| Y[Aib]EGTFTSDLSIQ[Met(O)]EKEAVRLFIEWLKAGGPSSGAPPPS-NH2 [SEQ ID NO: 13] |  |  | 8.1 pM | > 1e+06 pM | 0.4 pM |
| Y[Aib]EGTFTSDLSIQ[Met(O2)]EKEAVRLFIEWLKAGGPSSGAPPPS-NH2 [SEQ ID NO: 14] |  |  | 4.1 pM | > 1e+06 pM | 0.6 pM |
| Y[Aib]EGTFTSDLSIQLEKEAVRLFIEWLKAGGPSSGAPPPS-NH2 [SEQ ID NO: 20] |  |  | 3.9 pM | > 1e+06 pM | 1 pM |
| Y[Aib]EGTFTSDLSIQLEEEAV[αMeK]LFIEWLKAGGPSSGAPPPS-NH2 [SEQ ID NO: 17] |  |  | 1.8 pM | > 1e+06 pM | 1.1 pM |
| YXEGTFTSDLSIQMEEEAVRLFIEWLKAGGPSSGAPPPS (Aib at position 2; C-terminal amide (-NH2)) [SEQ ID NO: 8] |  |  | 9.8 pM | > 1e+06 pM |  |
| Y[Aib]EGTFTSDLSIQ[Nle]EKEAVRLFIEWLKAGGPSSGAPPPSK-NH2 [SEQ ID NO: 12] |  |  | 8.7 pM | > 1e+06 pM |  |
